Data published in patent publication US20070178491, “Compositions and Methods for Synthesizing Nucleic Acids” (INVITROGEN CORPORATION, published 2007).

Legend:
[1] = system: AccuPrime Protein II (SsoSSB) (Sulfolobus solfataricus); conditions: CITED Haseltine and Kowalczykowski 2002; about 3 orders of magnitude higher than AccuPrime protein I; cited from earlier work
[2] = biological target: T1, AccuPrime protein (AccuPrime Protein I; MjaSSB, Mja RPA SSB) (Methanococcus jannaschii, UniProt Q58559 Q58559:1-645); test: EMSA; 20 nM oligo, 0-40 nM protein; near-stoichiometric shift, super-shift, weak negative cooperativity; 20 mM Tris-HCl pH 8.4, 50 mM KCl, 1.5 mM MgCl2, 70 C; text calls it 84-mer or 86-mer; conditions: tags: expressed in E. coli BL21(DE3), Ni-NTA purified; label: 5'-32P
T1 sequence: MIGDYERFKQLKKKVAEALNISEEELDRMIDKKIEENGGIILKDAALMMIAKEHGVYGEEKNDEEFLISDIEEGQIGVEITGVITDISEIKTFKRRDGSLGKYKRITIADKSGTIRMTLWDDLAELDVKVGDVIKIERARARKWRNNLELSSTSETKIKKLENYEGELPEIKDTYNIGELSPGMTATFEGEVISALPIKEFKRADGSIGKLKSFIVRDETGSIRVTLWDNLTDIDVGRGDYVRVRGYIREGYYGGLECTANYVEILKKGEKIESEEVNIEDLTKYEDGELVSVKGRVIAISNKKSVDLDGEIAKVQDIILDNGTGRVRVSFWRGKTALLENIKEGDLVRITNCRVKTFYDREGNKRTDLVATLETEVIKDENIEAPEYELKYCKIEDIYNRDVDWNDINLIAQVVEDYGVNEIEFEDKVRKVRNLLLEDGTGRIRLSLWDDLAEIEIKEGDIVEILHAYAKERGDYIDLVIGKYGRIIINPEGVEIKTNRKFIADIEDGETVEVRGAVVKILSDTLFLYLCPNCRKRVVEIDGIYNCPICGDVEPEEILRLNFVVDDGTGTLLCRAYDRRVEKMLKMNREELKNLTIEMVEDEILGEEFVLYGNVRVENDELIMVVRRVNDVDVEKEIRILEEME
Description: Single stranded DNA binding. AccuPrime protein affinity for secondary structure of the single stranded DNA was tested with the 84 mer synthetic oligonucleotide KP_PALIN_cont: 5′-CTCCTGGATCGACTTCAGTCCGCTGATGATTAGATGTCGTCCTGGATCGACTTCACTCCGCACCCGCTACCAACAACAGTACCC-3′. The oligonucleotide was radiolabeled at the 5′ end in the same manner as the 5′ (ss) substrate for the exo-nuclease activity assay above with the oligonucleotide concentration at 5 μM.
Single stranded DNA binding. The binding affinity of AccuPrime protein to single stranded DNA (ssDNA) was measured using electrophoretic mobility shift assay (EMSA) on 6% horizontal polyacrylamide gel in TBE. The ssDNA molecules used in the assay were synthetic 86-mer oligonucleotides. The 5′ radiolabeled oligonucleotides were incubated with increasing amounts of the protein in 1×PCR buffer (20 mM Tris-HCl, pH 8.4, 50 mM KCl, 1.5 mM MgCl₂) at 70° C. for 5 min, and an aliquot of the reaction mix was loaded on the gel with currents on. The electrophoresis was continued for 1 hr and the gel was autoradiographed after dried.

single-stranded DNA (unspecified)
Kd [1]: 500 nM

B1: KP_PALIN_cont (ssDNA)
DNA: CTCCTGGATCGACTTCAGTCCGCTGATGATTAGATGTCGTCCTGGATCGACTTCACTCCGCACCCGCTACCAACAACAGTACCC
binding result [2]: binds
